Measurements: article PMC3285366

Molecular target: T1, Mps1(1–239) (human), P33981
T1 chain: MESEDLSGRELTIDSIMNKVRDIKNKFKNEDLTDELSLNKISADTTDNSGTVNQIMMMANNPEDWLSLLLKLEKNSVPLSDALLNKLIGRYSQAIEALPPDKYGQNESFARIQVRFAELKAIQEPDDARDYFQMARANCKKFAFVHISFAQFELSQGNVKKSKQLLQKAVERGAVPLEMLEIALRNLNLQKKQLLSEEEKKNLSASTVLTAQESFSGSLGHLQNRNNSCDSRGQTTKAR
Assay: SEC
Details: remark: other sources report otherwise

stoichiometry N: 2
B1: Mps1(1–239), P33981 1-239 (domain or fragment)
chain: MESEDLSGRELTIDSIMNKVRDIKNKFKNEDLTDELSLNKISADTTDNSGTVNQIMMMANNPEDWLSLLLKLEKNSVPLSDALLNKLIGRYSQAIEALPPDKYGQNESFARIQVRFAELKAIQEPDDARDYFQMARANCKKFAFVHISFAQFELSQGNVKKSKQLLQKAVERGAVPLEMLEIALRNLNLQKKQLLSEEEKKNLSASTVLTAQESFSGSLGHLQNRNNSCDSRGQTTKAR
